Measurements from article PMC6786517.

Target: F-actin
Assay: co-sedimentation; F-actin co-sedimentation of HA-cortactin WT, 8KQ and 8KR; gray values of cortactin in pellets and supernatants

Q: With “HA-tagged acetylation-mimetic cortactin (8KQ) (from UniProt Q60598 1-546) (natural protein)” as the substance, how does the ratio of gray value of cortactin in pellets and supernatants read?
A: Its ratio of gray value of cortactin in pellets and supernatants is 0.781.

Q: How did the ratio of gray value of cortactin in pellets and supernatants turn out when “HA-tagged cortactin (from UniProt Q60598 1-546) (natural protein)” was run?
A: Its ratio of gray value of cortactin in pellets and supernatants is 1.03.

Q: For “HA-tagged non-acetylation-mimetic cortactin (8KR) (from UniProt Q60598 1-546) (natural protein)”, which ratio of gray value of cortactin in pellets and supernatants is on record?
A: The ratio of gray value of cortactin in pellets and supernatants was 1.59.
